{"source": "patent US7279548", "about": "(CYTOGEN, dated 2007)", "key": {"[1]": {"biological_target": "T1, WWP1.4 WW domain expressed as GST fusion protein (human)", "T1 construct": "Whole WWP1 entry named; not shown: glutathione S-transferase (GST) fusion partner", "test": "ELISA cross affinity mapping, GST-WW fusion"}, "[2]": {"biological_target": "T2, WWP2.1 WW domain expressed as GST fusion protein (human)", "T2 construct": "Whole WWP2 entry named; not shown: glutathione S-transferase (GST) fusion partner", "T2 sequence (chain, as listed by the source)": "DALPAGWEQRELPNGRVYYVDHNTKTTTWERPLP", "test": "ELISA cross affinity mapping, GST-WW fusion"}, "[3]": {"biological_target": "T3, WWP2.3 WW domain expressed as GST fusion protein (human)", "T3 construct": "Whole WWP2 entry named; not shown: glutathione S-transferase (GST) fusion partner", "T3 sequence (chain, as listed by the source)": "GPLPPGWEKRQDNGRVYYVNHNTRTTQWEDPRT", "test": "ELISA cross affinity mapping, GST-WW fusion"}, "[4]": {"biological_target": "T4, WWP1.2 WW domain expressed as GST fusion protein (human)", "T4 construct": "Whole WWP1 entry named; not shown: glutathione S-transferase (GST) fusion partner", "T4 sequence (chain, as listed by the source)": "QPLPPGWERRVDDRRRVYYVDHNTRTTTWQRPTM", "test": "ELISA cross affinity mapping, GST-WW fusion"}, "[5]": {"biological_target": "T5, WWP2.4 WW domain expressed as GST fusion protein (human)", "T5 construct": "Whole WWP2 entry named; also called WW2.4; not shown: glutathione S-transferase (GST) fusion partner", "T5 sequence (chain, as listed by the source)": "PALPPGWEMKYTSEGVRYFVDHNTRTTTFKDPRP", "test": "ELISA cross affinity mapping, GST-WW fusion"}, "[6]": {"biological_target": "T6, WWP2.2 WW domain expressed as GST fusion protein (human)", "T6 construct": "Whole WWP2 entry named; not shown: glutathione S-transferase (GST) fusion partner", "T6 sequence (chain, as listed by the source)": "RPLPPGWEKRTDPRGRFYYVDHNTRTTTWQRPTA", "test": "ELISA cross affinity mapping, GST-WW fusion"}, "[7]": {"biological_target": "T7, WWP3 WW domain expressed as GST fusion protein (human)", "T7 construct": "Whole WWP3 entry named; not shown: glutathione S-transferase (GST) fusion partner", "T7 sequence (chain, as listed by the source)": "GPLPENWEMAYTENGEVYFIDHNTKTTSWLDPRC", "test": "ELISA cross affinity mapping, GST-WW fusion"}, "[8]": {"biological_target": "T8, WWP1.1 WW domain expressed as GST fusion protein (human)", "T8 construct": "Whole WWP1 entry named; not shown: glutathione S-transferase (GST) fusion partner", "T8 sequence (chain, as listed by the source)": "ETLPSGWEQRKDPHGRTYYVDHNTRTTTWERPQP", "test": "ELISA cross affinity mapping, GST-WW fusion"}, "[9]": {"biological_target": "T9, WWP1.3 WW domain expressed as GST fusion protein (human)", "T9 construct": "Label WWP1.3 follows the pattern of the printed labels; whole WWP1 entry named; not shown: glutathione S-transferase (GST) fusion partner", "T9 sequence (chain, as listed by the source)": "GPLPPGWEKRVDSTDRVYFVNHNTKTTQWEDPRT", "test": "ELISA cross affinity mapping, GST-WW fusion"}, "[10]": {"biological_target": "T1, WWP1.4 WW domain expressed as GST …", "test": "cross affinity mapping, GST-WW fusion"}, "[11]": {"biological_target": "T2, WWP2.1 WW domain expressed as GST …", "test": "cross affinity mapping, GST-WW fusion"}, "[12]": {"biological_target": "T3, WWP2.3 WW domain expressed as GST …", "test": "cross affinity mapping, GST-WW fusion"}, "[13]": {"biological_target": "T4, WWP1.2 WW domain expressed as GST …", "test": "cross affinity mapping, GST-WW fusion"}, "[14]": {"biological_target": "T5, WWP2.4 WW domain expressed as GST …", "test": "cross affinity mapping, GST-WW fusion"}, "[15]": {"biological_target": "T6, WWP2.2 WW domain expressed as GST …", "test": "cross affinity mapping, GST-WW fusion"}, "[16]": {"biological_target": "T8, WWP1.1 WW domain expressed as GST …", "test": "cross affinity mapping, GST-WW fusion"}, "[17]": {"biological_target": "T9, WWP1.3 WW domain expressed as GST …", "test": "cross affinity mapping, GST-WW fusion"}}, "note": "No end group written: not given here. *: point of attachment. Biotin = O=C1N[C@H]2[C@H](CS[C@H]2CCCCC(=O)*)N1"}
{"binder": "Biotin-SGSGPGTPYPPPPEFY (Tested as SA-AP complex)", "note": "[WBP-2B peptide (biotin-SGSGPGTPYPPPPEFY)]", "values": [{"measurement": "binding result", "setting": "[1]", "result": "no binding"}, {"measurement": "binding result", "setting": "[2]", "result": "no binding"}, {"measurement": "binding result", "setting": "[3]", "result": "no binding"}, {"measurement": "binding result", "setting": "[4]", "result": "no binding"}, {"measurement": "binding result", "setting": "[5]", "result": "no binding"}, {"measurement": "binding result", "setting": "[6]", "result": "no binding"}, {"measurement": "binding result", "setting": "[7]", "result": "no binding"}, {"measurement": "binding result", "setting": "[8]", "result": "no binding"}, {"measurement": "binding result", "setting": "[9]", "result": "no binding"}]}
{"binder": "Biotin-SGSGPGTPPPPYTVGPGY (Tested as streptavidin-enzyme complex)", "note": "[WBP-1 peptide (biotin-SGSGPGTPPPPYTVGPGY)]", "values": [{"measurement": "binding result", "setting": "[7]", "result": "no binding"}]}
{"binder": "Biotin-PGTPPPNHDSLRL", "note": "[ENaCβ-Y618H peptide]", "values": [{"measurement": "binding result", "setting": "[10]", "result": "no binding"}, {"measurement": "binding result", "setting": "[11]", "result": "no binding"}, {"measurement": "binding result", "setting": "[12]", "result": "no binding"}, {"measurement": "binding result", "setting": "[13]", "result": "no binding"}, {"measurement": "binding result", "setting": "[14]", "result": "no binding"}, {"measurement": "binding result", "setting": "[15]", "result": "no binding"}, {"measurement": "binding result", "setting": "[16]", "result": "no binding"}, {"measurement": "binding result", "setting": "[17]", "result": "no binding"}]}
{"binder": "NRLDLPPAKSYEQ (also: biotinylated, Short peptide)", "values": [{"measurement": "binding result", "setting": "[10]", "result": "no binding"}, {"measurement": "binding result", "setting": "[11]", "result": "no binding"}, {"measurement": "binding result", "setting": "[12]", "result": "no binding"}, {"measurement": "binding result", "setting": "[13]", "result": "no binding"}, {"measurement": "binding result", "setting": "[14]", "result": "no binding"}, {"measurement": "binding result", "setting": "[15]", "result": "no binding"}, {"measurement": "binding result", "setting": "[16]", "result": "no binding"}, {"measurement": "binding result", "setting": "[17]", "result": "no binding"}]}
{"binder": "NRLDLPPAETFED (also: biotinylated, Short peptide)", "values": [{"measurement": "binding result", "setting": "[10]", "result": "no binding"}, {"measurement": "binding result", "setting": "[11]", "result": "no binding"}, {"measurement": "binding result", "setting": "[12]", "result": "no binding"}, {"measurement": "binding result", "setting": "[13]", "result": "no binding"}, {"measurement": "binding result", "setting": "[14]", "result": "no binding"}, {"measurement": "binding result", "setting": "[15]", "result": "no binding"}, {"measurement": "binding result", "setting": "[16]", "result": "no binding"}, {"measurement": "binding result", "setting": "[17]", "result": "no binding"}]}
{"binder": "Biotin-SGSGYVQPPPPPYPGPM (Tested as SA-AP complex)", "note": "[WBP-2A peptide (biotin-SGSGYVQPPPPPYPGPM)]", "values": [{"measurement": "binding result", "setting": "[7]", "result": "binds"}]}
{"binder": "Biotin-SGSGYVQPPPAPYPGPM", "note": "[WBP-2A-Pro4 (alanine substitution of the third proline of the PPPPY motif of WBP-2A)]", "values": [{"measurement": "binding result", "setting": "[1]", "result": "no binding"}, {"measurement": "binding result", "setting": "[2]", "result": "no binding"}, {"measurement": "binding result", "setting": "[3]", "result": "no binding"}, {"measurement": "binding result", "setting": "[4]", "result": "no binding"}, {"measurement": "binding result", "setting": "[5]", "result": "no binding"}, {"measurement": "binding result", "setting": "[6]", "result": "no binding"}, {"measurement": "binding result", "setting": "[7]", "result": "no binding"}, {"measurement": "binding result", "setting": "[8]", "result": "no binding"}, {"measurement": "binding result", "setting": "[9]", "result": "no binding"}]}
{"binder": "Biotin-SGSGPGTPPAPYTVGPGY (not fully specified)", "note": "[WBP-1-Pro3 (alanine substitution at the third proline position of the PPPPY motif of WBP-1)]", "values": [{"measurement": "binding result", "setting": "[1]", "result": "no binding"}, {"measurement": "binding result", "setting": "[2]", "result": "no binding"}, {"measurement": "binding result", "setting": "[3]", "result": "no binding"}, {"measurement": "binding result", "setting": "[4]", "result": "no binding"}, {"measurement": "binding result", "setting": "[5]", "result": "no binding"}, {"measurement": "binding result", "setting": "[6]", "result": "no binding"}, {"measurement": "binding result", "setting": "[8]", "result": "no binding"}, {"measurement": "binding result", "setting": "[9]", "result": "no binding"}]}
{"binder": "Biotin-PGTPPLNYDSLRL", "note": "[ENaCβ-P616L peptide]", "values": [{"measurement": "binding result", "setting": "[10]", "result": "no binding"}, {"measurement": "binding result", "setting": "[11]", "result": "no binding"}, {"measurement": "binding result", "setting": "[12]", "result": "no binding"}, {"measurement": "binding result", "setting": "[13]", "result": "no binding"}, {"measurement": "binding result", "setting": "[14]", "result": "no binding"}, {"measurement": "binding result", "setting": "[15]", "result": "no binding"}, {"measurement": "binding result", "setting": "[16]", "result": "no binding"}, {"measurement": "binding result", "setting": "[17]", "result": "no binding"}]}
